The values below come from publication doi:10.1101/2021.11.25.470006 (bioRxiv, 2021).

The chains are these.
T1: Smc6 (Walker B mutant E1048Q) (S. cerevisiae, UniProt Q12749 1-1114, E1048Q, BS3-crosslinked within the holo-complex)
T1 sequence: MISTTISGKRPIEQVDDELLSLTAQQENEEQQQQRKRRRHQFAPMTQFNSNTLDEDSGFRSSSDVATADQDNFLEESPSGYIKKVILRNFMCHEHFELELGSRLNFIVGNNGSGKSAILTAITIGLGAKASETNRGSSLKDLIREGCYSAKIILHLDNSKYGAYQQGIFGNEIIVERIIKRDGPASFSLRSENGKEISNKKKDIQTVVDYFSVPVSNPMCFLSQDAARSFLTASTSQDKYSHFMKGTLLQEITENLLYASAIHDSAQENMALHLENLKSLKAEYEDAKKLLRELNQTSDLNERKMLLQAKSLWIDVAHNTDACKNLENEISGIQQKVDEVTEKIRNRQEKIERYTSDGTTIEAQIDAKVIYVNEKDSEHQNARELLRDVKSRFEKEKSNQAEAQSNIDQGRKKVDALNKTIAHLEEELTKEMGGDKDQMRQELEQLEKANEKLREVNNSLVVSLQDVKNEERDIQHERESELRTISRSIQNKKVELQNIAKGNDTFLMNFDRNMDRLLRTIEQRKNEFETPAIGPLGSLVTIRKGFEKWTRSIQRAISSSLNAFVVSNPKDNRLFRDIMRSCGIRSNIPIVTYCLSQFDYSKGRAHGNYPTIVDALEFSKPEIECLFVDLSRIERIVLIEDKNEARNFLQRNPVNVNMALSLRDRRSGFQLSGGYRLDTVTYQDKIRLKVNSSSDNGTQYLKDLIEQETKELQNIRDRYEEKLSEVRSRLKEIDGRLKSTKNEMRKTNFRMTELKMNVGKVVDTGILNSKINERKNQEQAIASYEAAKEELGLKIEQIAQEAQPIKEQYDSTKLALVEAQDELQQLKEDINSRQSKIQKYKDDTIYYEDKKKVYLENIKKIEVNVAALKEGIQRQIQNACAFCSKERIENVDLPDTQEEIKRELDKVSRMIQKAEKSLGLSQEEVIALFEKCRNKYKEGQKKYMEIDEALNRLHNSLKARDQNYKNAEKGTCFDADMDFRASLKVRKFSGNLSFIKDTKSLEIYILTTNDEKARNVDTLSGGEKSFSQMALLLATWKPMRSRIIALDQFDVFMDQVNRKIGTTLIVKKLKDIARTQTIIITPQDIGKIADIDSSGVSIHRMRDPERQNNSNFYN

B1: Nse1 (natural protein, S. cerevisiae)
chain: MEVHEEQVSAPVTGDATAKYLLQYILSARGICHENALILALMRLETDASTLNTEWSIQQWVDKLNDYINAINVKLNLLGYKIIRINHGIGRNAVTLKAKQNFESFEDNTAIRAHNNDYAVLQSIVLPESNRFFVYVNLASTEETKLATRFNQNEIEFMKWAIEQFMISGETIVEGPALETSIIVKEVNRILVAATGDSNLAKWRKFSTFTVGSTNLFQFQELTATDIEDLLLRLCELKWFYRTQEGKFGIDLRCIAELEEYLTSMYNLNTCQNCHKLAIQGVRCGNESCREENEETGENSLSQIWHVDCFKHYITHVSKNCDRCGSSLITEGVYVI
modifications: BS3-crosslinked within the holo-complex
B2: Smc5 (Walker B mutant E1015Q) (natural protein, S. cerevisiae)
chain: MTSLIDLGRYVERTHHGEDTEPRSKRVKIAKPDLSSFQPGSIIKIRLQDFVTYTLTEFNLSPSLNMIIGPNGSGKSTFVCAVCLGLAGKPEYIGRSKKVEDFIKNGQDVSKIEITLKNSPNVTDIEYIDARDETIKITRIITRSKRRSDYLINDYQVSESVVKTLVAQLNIQLDNLCQFLSQERVEEFARLKSVKLLVETIRSIDASLLDVLDELRELQGNEQSLQKDLDFKKAKIVHLRQESDKLRKSVESLRDFQNKKGEIELHSQLLPYVKVKDHKEKLNIYKEEYERAKANLRAILKDKKPFANTKKTLENQVEELTEKCSLKTDEFLKAKEKINEIFEKLNTIRDEVIKKKNQNEYYRGRTKKLQATIISTKEDFLRSQEILAQTHLPEKSVFEDIDIKRKEIINKEGEIRDLISEIDAKANAINHEMRSIQRQAESKTKSLTTTDKIGILNQDQDLKEVRDAVLMVREHPEMKDKILEPPIMTVSAINAQFAAYLAQCVDYNTSKALTVVDSDSYKLFANPILDKFKVNLRELSSADTTPPVPAETVRDLGFEGYLSDFITGDKRVMKMLCQTSKIHTIPVSRRELTPAQIKKLITPRPNGKILFKRIIHGNRLVDIKQSAYGSKQVFPTDVSIKQTNFYQGSIMSNEQKIRIENEIINLKNEYNDRKSTLDALSNQKSGYRHELSELASKNDDINREAHQLNEIRKKYTMRKSTIETLREKLDQLKREARKDVSQKIKDIDDQIQQLLLKQRHLLSKMASSMKSLKNCQKELISTQILQFEAQNMDVSMNDVIGFFNEREADLKSQYEDKKKFVKEMRDTPEFQSWMREIRSYDQDTKEKLNKVAEKYEEEGNFNLSFVQDVLDKLESEIAMVNHDESAVTILDQVTAELRELEHTVPQQSKDLETIKAKLKEDHAVLEPKLDDIVSKISARFARLFNNVGSAGAVRLEKPKDYAEWKIEIMVKFRDNAPLKKLDSHTQSGGERAVSTVLYMIALQEFTSAPFRVVDQINQGMDSRNERIVHKAMVENACAENTSQYFLITPKLLTGLHYHEKMRIHCVMAGSWIPNPSEDPKMIHFGETSNYSFD
modifications: BS3-crosslinked within the holo-complex
B3: Nse2 (Mms21) (natural protein, S. cerevisiae)
chain: ALNDNPIPKSVPLHPKSGKYFHNLHARDLSNIYQQCYKQIDETINQLVDSTSPSTIGIEEQVADITSTYKLLSTYESESNSFDEHIKDLKKNFKQSSDACPQIDLSTWDKYRTGELTAPKLSELYLNMPTPEPATMVNNTDTLKILKVLPYIWNDPTCVIPDLQNPADEDDLQIEGGKIELTCPITCKPYEAPLISRKCNHVFDRDGIQNYLQGYTTRDCPQAACSQVVSMRDFVRDPIMELRCKIAKMKESQEQDKRSSQAIDVL
modifications: BS3-crosslinked within the holo-complex
B4: Nse4 (HALO-tagged) (natural protein, S. cerevisiae)
chain: MSSTVISRKRRNSTVTEPDSSGETRKQKKSRSDEKSSSSKDGDPQLEFKVLQGYRDLESEMHKGRAQVTRTGDIGVAMDNLNAVDSLFNKVIGIKNNGLFAHDARAMVSISELAQISVRNLKFDDSRSMVNLENIVNSLKRYMLKEHFKLNNIAENRNDLTLAADEQSAADQQEESDGDIDRTPDDNHTDKATSSFKATSMRHSYLQQFSHYNEFSQFNWFRIGALYNTISKNAPITDHLMGPLSIEKKPRVLTQRRRNNDQVGEKITAEKITQHSLNSTQQETTPEQVKKCFKKLSKKLGPEGSINLFKFIIDPNSFSRSIENLFYTSFLIKEGKLLMEHDEEGLPTIKIKQSISHTDSRSKEIERQRRRAAHQNHIIFQMDMPTWRKLIKKYNITSPFLD
modifications: BS3-crosslinked within the holo-complex

Common to all, as to assay: cryo-EM structure
In assay [1] the target is B2.
The assay “Nse4 (HALO-tagged)” concerns the target B4.
Assay [2] has as its target T1, Smc6 (Walker B mutant E1048Q).

With B1, the binding result (in assay [1]; in the assay with Nse4 (HALO-tagged)) was “binds” throughout.

With B2, in assay [2], the binding result is reported as “binds”.

As for B3, the binding result in assay [1] and in assay [2] was “binds” in each case.

Consider B4, for which the binding result in assay [1] and in assay [2] was “binds” each time.
